Data taken from patent US20210171616A1 (Eli Lilly, published 2021).

T1: PACAP38 (human, K at residue 38 modified by C-terminal amidation)
T1 peptide: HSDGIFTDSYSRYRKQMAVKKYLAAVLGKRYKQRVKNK

T2: PACAP27 (human, L at residue 27 modified by C-terminal amidation)
T2 peptide: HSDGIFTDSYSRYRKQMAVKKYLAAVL

T3: VIP (UniProt P01282 125-152)
T3 peptide (looked up): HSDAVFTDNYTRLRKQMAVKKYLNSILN

T4: N-terminal biotinylated PACAP38 (Anaspec, #23590) (human, N-terminal biotin; K at residue 38 modified by C-terminal amidation (as stated for SEQ ID NO 13))
T4 construct: Bought peptide; also called Antigen (PACAP38)
T4 peptide: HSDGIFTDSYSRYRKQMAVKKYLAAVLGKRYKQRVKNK

T5: N-terminal biotinylated PACAP27 (custom synthesis, CPC Scientific) (human, N-terminal biotin; L at residue 27 modified by C-terminal amidation (as stated for SEQ ID NO 14))
T5 construct: Custom peptide; also called Antigen (PACAP27)
T5 peptide: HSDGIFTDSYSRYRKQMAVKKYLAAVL


Assays:
PACAP38 [1] = target: T1, PACAP38; experiment: cell-based or functional assay
PACAP27 [2] = target: T2, PACAP27; experiment: cell-based or functional assay
PACAP38 [3] = target: T1, PACAP38; experiment: cell-based or functional assay
PACAP27 [4] = target: T2, PACAP27; experiment: cell-based or functional assay
VIP = target: T3, VIP; experiment: cell-based or functional assay
PACAP38 [5] = target: T1, PACAP38; experiment: cell-based or functional assay
PACAP27 [6] = target: T2, PACAP27; experiment: cell-based or functional assay
PACAP27 [7] = target: T2, PACAP27; experiment: cell-based or functional assay
PACAP38 [8] = target: T1, PACAP38; experiment: cell-based or functional assay
PACAP38 [9] = target: T1, PACAP38; experiment: cell-based or functional assay
[10] = target: T4, N-terminal biotinylated PACAP38 …; experiment: kinetic exclusion 96-well MSD plate assay, solution equilibrium at 37 C, 30 pM biotinylated antigen
Protocol: (§1) Binding affinity (KD) for each antibody-antigen complex is determined using a kinetic exclusion 96-well plate-based assay (adapted from Estep et al., mAbs, 2013, 5:270-278). Briefly, a 3-fold dilution series for each Exemplified Ab (set forth in Table 1) is prepared from a starting concentration of 7290 pM to 41 fM; each series including an antibody-blank control. Samples are prepared in 3% (w/v) Blocker A solution (MSD, #R93AA-1) and a fixed final antigen concentration of 30 pM of N-terminal biotinylated PACAP27 (custom synthesis, CPC Scientific) or N-terminal biotinylated PACAP38 (Anaspec, #23590) is added to each sample. A volume of 100 μl of each antigen-antibody sample is added to individual wells of a 96-well microtiter plate (Greiner, EK-20101) in duplicate. The plate is sealed with optical adhesive film (Thermo Fisher Scientific, #4311971) and incubated at 37° C. for 3 to 4 days to allow for sample equilibrium. On the day before analysis, each row of a 96-well MSD Standard plate (MSD, #L15XA) is coated with 30 μl of the corresponding antibody (as used in the titration series) at a concentration of 3 μg/ml in phosphate buffered saline (PBS). On the day of the experiment, the MSD Standard plate is washed once with 150 μl PBS and blocked with 150 μl of 3% Blocker A solution for 45 min at 30° C. with shaking at 300 rpm on a MaxQ 4450 benchtop shaker (Thermo Fisher Scientific). Following three washes with PBS, 50 μl of each antigen-antibody sample (prepared and incubated as described above) is added to the MSD Standard plate and incubated for 150 seconds at 30° C. with shaking at 300 rpm. Following a single wash with PBS, 50 μl of 1 μg/ml SULFO-TAG labeled Streptavidin (MSD, #R32AD-5) prepared in 1% (w/v) Blocker A solution is added and the MSD Standard plate and the plate is incubated at 30° C. for 3 minutes with shaking at 300 rpm. The plate is washed three more times with PBS followed by the addition of 150 μl/well of 1× Read buffer (MSD, #R92TC-2). The MSD Standard plate is read using a MESO Quickplex SQ 120/1300 instrument (Meso Scale Discovery). Data analysis is done using SigmaPlot (Version 12.5, Systat Software) and binding affinity (KD) is determined using SigmaPlot's integrated Four Parameter Logistic Curve Model.

[11] = target: T5, N-terminal biotinylated PACAP27 (custom …); experiment: as above
Protocol: as §1

Molecule | Inhibition (IC50) of PACAP38 (100 pM) induced cAMP in hPAC1 CHO-K1 cells (PACAP38 [3]) | Inhibition (IC50) of PACAP38 (800 pM) induced cAMP in hVPAC2 CHO-K1 cells (PACAP38 [3]) | Inhibition (IC50) of PACAP27 (100 pM) induced cAMP in hPAC1 CHO-K1 cells (PACAP27 [4]) | Inhibition (IC50) of PACAP27 (800 pM) induced cAMP in hVPAC2 CHO-K1 cells (PACAP27 [4]) | Inhibition (IC50) of VIP (800 pM) induced cAMP in hVPAC2 CHO-K1 cells (VIP) | Percentage tryptase release in human mast cells upon addition of 1 uM PACAP38; antibody 153 uM, single point (PACAP38 [5]) | Percentage tryptase release in human mast cells upon addition of 1 uM PACAP27; antibody 153 uM, single point (PACAP27 [6]) | Percentage tryptase release upon addition of PACAP27; antibody dose 0 uM (PACAP27 [7]) | Percentage tryptase release upon addition of PACAP27; antibody dose 0.2 uM (PACAP27 [7]) | Percentage tryptase release upon addition of PACAP27; antibody dose 0.6 uM (PACAP27 [7]) | Percentage tryptase release upon addition of PACAP27; antibody dose 1.8 uM (PACAP27 [7]) | Percentage tryptase release upon addition of PACAP27; antibody dose 5.6 uM (PACAP27 [7]) | Percentage tryptase release upon addition of PACAP27; antibody dose 17 uM (PACAP27 [7]) | Percentage tryptase release upon addition of PACAP27; antibody dose 51 uM (PACAP27 [7]) | Percentage tryptase release upon addition of PACAP27; antibody dose 153 uM (PACAP27 [7]) | Percentage tryptase release upon addition of PACAP38; antibody dose 0 uM (PACAP38 [8]) | Percentage tryptase release upon addition of PACAP38; antibody dose 0.2 uM (PACAP38 [8]) | Percentage tryptase release upon addition of PACAP38; antibody dose 0.6 uM (PACAP38 [8]) | Percentage tryptase release upon addition of PACAP38; antibody dose 1.8 uM (PACAP38 [8]) | Kd [11] | also measured
IgG4 mAb (negative control) (antibody) |  |  |  |  |  |  |  |  |  |  |  |  |  |  |  |  |  |  |  |  | Percentage tryptase release in human mast cells upon addition of 1 uM PACAP38; negative control antibody, single point (PACAP38 [1]): 104%; Percentage tryptase release upon addition of PACAP38; negative control antibody dose 153 uM (PACAP38 [1]): 79.6%; Plasma cAMP levels in CD-1 mice after iv PACAP38 (13 nmols/kg); control antibody 10 mg/kg sc (PACAP38 [1]): 4.09 µM; Percentage tryptase release in human mast cells upon addition of 1 uM PACAP27; negative control antibody, single point (PACAP27 [2]): 110%; Percentage tryptase release upon addition of PACAP27; negative control antibody dose 153 uM (PACAP27 [2]): 94.8%
Exemplified Antibody B (antibody, human IgG4 S228P, kappa, F234A L235A, V domains shown, IgG4, kappa light chain; also called Exemplified Ab B; Ab B) VH: EVQLLESGGGLVQPGGSLRLSCAASGFTFSSYYMSWVRQAPGKGLEWVSAISLSGGSTYYAASHKGRFTISRDNSKNTLYLQMNSLRAEDTAVYYCVREVGASTHNYYGMDVWGQGTMVTVSS VL: DIQMTQSPSSLSASVGDRVTITCRASQSIWRWLAWYQQKPGKAPKLLIHDASQLFEGVPSRFSGSGSGTDFTFTISSLQPEDIATYYCQQFDLLPLTFGGGTKVEIKR | 265 pM | 294 pM | 270 pM | 605 pM | > 100000 pM | 4.9% | 21% | 85.2% | 78.1% | 54% | 11.7% | 8.1% | 11.6% | 19.4% | 10.3% | 77.2% | 73.7% | 52.4% | 25.2% | 0.0116 nM | Percentage tryptase release upon addition of PACAP38; antibody dose 5.6 uM (PACAP38 [8]): 22%; Percentage tryptase release upon addition of PACAP38; antibody dose 17 uM (PACAP38 [8]): 14.9%; Percentage tryptase release upon addition of PACAP38; antibody dose 51 uM (PACAP38 [8]): 14.6%; Percentage tryptase release upon addition of PACAP38; antibody dose 153 uM (PACAP38 [8]): 2%; Plasma cAMP levels in CD-1 mice after iv PACAP38 (13 nmols/kg); antibody 10 mg/kg sc (PACAP38 [9]): 715 nM; Kd [10]: 0.0128 nM
Exemplified Antibody A (antibody, human IgG4 S228P, kappa, F234A L235A, V domains shown, IgG4, kappa light chain; also called Exemplified Ab A; Ab A) VH: EVQLLESGGGLVQPGGSLRLSCAASGFTFSSYYMSWVRQAPGKGLEWVSAISLSGGSTYYADSHKGRFTISRDNSKNTLYLQMNSLRAEDTAVYYCVREVGASNHNYYGMDVWGQGTMVTVSS VL: DIQMTQSPSSLSASVGDRVTITCRASQSISRWLAWYQQKPGKAPKLLIHDASQLLEGVPSRFSGSGSGTDFTFTISSLQPEDIATYYCQQFDLLPLTFGGGTKVEIKR | 554 pM | 714 pM | 2250 pM | 781 pM | > 100000 pM |  |  |  |  |  |  |  |  |  |  |  |  |  |  | 0.037 nM | 
Exemplified Antibody C (antibody, human IgG4 S228P, kappa, F234A L235A, V domains shown, IgG4, kappa light chain; also called Exemplified Ab C; Ab C) VH: EVQLLESGGGLVQPGGSLRLSCAASGFTFSSYYMSWVRQAPGKGLEWVSAISLSGGSTYYAESHKGRFTISRDNSKNTLYLQMNSLRAEDTAVYYCVREVGASTHNYYGMDVWGQGTMVTVSS VL: DIQMTQSPSSLSASVGDRVTITCRASQSIWRWLAWYQQKPGKAPKLLIHDASQLFEGVPSRFSGSGSGTDFTFTISSLQPEDIATYYCQQFDLLPLTFGGGTKVEIKR | 303 pM | 325 pM | 311 pM | 595 pM | > 100000 pM | 5.5% | 14.2% | 85.8% | 85.2% | 55.4% | 10.4% | 11.5% | 8% | 17.8% | 9.7% | 80.3% | 77.6% | 66.6% | 26.5% | 0.0145 nM | Percentage tryptase release upon addition of PACAP38; antibody dose 5.6 uM (PACAP38 [8]): 21.9%; Percentage tryptase release upon addition of PACAP38; antibody dose 17 uM (PACAP38 [8]): 15.5%; Percentage tryptase release upon addition of PACAP38; antibody dose 51 uM (PACAP38 [8]): 12.1%; Percentage tryptase release upon addition of PACAP38; antibody dose 153 uM (PACAP38 [8]): 2.8%; Plasma cAMP levels in CD-1 mice after iv PACAP38 (13 nmols/kg); antibody 10 mg/kg sc (PACAP38 [9]): 666 nM; Kd [10]: 0.0146 nM
Exemplified Antibody D (antibody, human IgG4 S228P, kappa, F234A L235A, V domains shown, IgG4, kappa light chain; also called Exemplified Ab D; Ab D) VH: EVQLLESGGGLVQPGGSLRLSCAASGFTFSSYYMSWVRQAPGKGLEWVSAISLSGGSTYYAQSHKGRFTISRDNSKNTLYLQMNSLRAEDTAVYYCVREVGASTHNYYGMDVWGQGTMVTVSS VL: DIQMTQSPSSLSASVGDRVTITCRASQSIWRWLAWYQQKPGKAPKLLIHDASQLFEGVPSRFSGSGSGTDFTFTISSLQPEDIATYYCQQFDLLPLTFGGGTKVEIKR | 205 pM | 243 pM | 212 pM | 515 pM | > 100000 pM | 4.2% | 15.1% | 92.7% | 86.5% | 73% | 20.3% | 16.4% | 19.8% | 26% | 9.4% | 76.5% | 74% | 64.5% | 31.3% | 0.0105 nM | Percentage tryptase release upon addition of PACAP38; antibody dose 5.6 uM (PACAP38 [8]): 25.9%; Percentage tryptase release upon addition of PACAP38; antibody dose 17 uM (PACAP38 [8]): 19.6%; Percentage tryptase release upon addition of PACAP38; antibody dose 51 uM (PACAP38 [8]): 14.7%; Percentage tryptase release upon addition of PACAP38; antibody dose 153 uM (PACAP38 [8]): 1.7%; Plasma cAMP levels in CD-1 mice after iv PACAP38 (13 nmols/kg); antibody 10 mg/kg sc (PACAP38 [9]): 560 nM; Kd [10]: 0.009 nM
